In paper PMC10857128:

How the values were obtained:
[1] = biological target: peppermint leaf-type ferredoxin NADP+ reductase (L-FNR) (Mentha × piperita (peppermint))
[2] = biological target: peppermint root-type ferredoxin NADP+ reductase (R-FNR) (Mentha × piperita (peppermint))
[3] = biological target: peppermint root-type ferredoxin NADP+ reductase (R-FNR) (Mentha × piperita (peppermint)); remark: listed apart in the source

Row | Km^Fd, FNR–Fd-dependent cytochrome c reduction (NADPH-dependent cytochrome c reductase assay, Fd varied 0.3-20 µM, 30 °C, 50 mM Tris pH 7.5) [1] | kcat, FNR–Fd-dependent cytochrome c reduction (NADPH-dependent cytochrome c reductase assay, Fd varied 0.3-20 µM, 30 °C, 50 mM Tris pH 7.5) [1] | kcat/Km^Fd, FNR–Fd-dependent cytochrome c reduction (NADPH-dependent cytochrome c reductase assay, Fd varied 0.3-20 µM, 30 °C, 50 mM Tris pH 7.5) [1] | Km^Fd, FNR–Fd-dependent cytochrome c reduction (NADPH-dependent cytochrome c reductase assay, Fd varied 0.3-20 µM, 30 °C, 50 mM Tris pH 7.5) [2] | kcat, FNR–Fd-dependent cytochrome c reduction (NADPH-dependent cytochrome c reductase assay, Fd varied 0.3-20 µM, 30 °C, 50 mM Tris pH 7.5) [2] | kcat/Km^Fd, FNR–Fd-dependent cytochrome c reduction (NADPH-dependent cytochrome c reductase assay, Fd varied 0.3-20 µM, 30 °C, 50 mM Tris pH 7.5) [2] | Km value for Fd III as told in the text, NADPH-dependent cytochrome c reductase assay (differs from the cell of Table 2) [3] | Substance
1 | 2.8 µM | 304 s^−1 | 109 µM^−1s^−1 | 1.9 µM | 428 s^−1 | 222 µM^−1s^−1 |  | peppermint root-type ferredoxin (Fd II) (natural protein)
2 | 2.3 µM | 125 s^−1 | 54.2 µM^−1s^−1 | 3.6 µM | 281 s^−1 | 78.3 µM^−1s^−1 |  | peppermint leaf-type ferredoxin (Fd I) (natural protein)
3 | 2.9 µM | 286 s^−1 | 98.1 µM^−1s^−1 | 2.3 µM | 428 s^−1 | 189 µM^−1s^−1 | 2.1 µM | peppermint root-type ferredoxin (Fd III) (natural protein)
